Our source for the stoichiometry N values is article doi:10.1101/2021.01.08.425906.

The target in this experiment is CagFbFP-I52T-Q148K (Chloroflexus aggregans) (UniProt B8GAY9). Briefly: crystal structure.

As a reminder, the stoichiometry N is a count of units in the complex or per binding partner.

For “CagFbFP-I52T-Q148K (from UniProt B8GAY9 47-153) (domain or fragment)”, the stoichiometry N is 2.
